Measured values published in US20140087995A1 (published 2014).
Numbered stars: 1 amine (or outer) side, 2 acyl side, 3 side chain; on linkers, the order of the positions; unused ones are H or OH. Bridge positions count the residues as written; N and C are the ends. Side chains are listed from the residue outwards. Ends that are not written are not given here. * marks the point of attachment. C20 diacid = O=C(O)CCCCCCCCCCCCCCCCCCC(=O)*; γGlu = O=C(O)[C@H](CCC(=O)[*:2])N[*:1]

T1: human calcitonin receptor (human, UniProt P30988 25-474)
T1 construct: whole, on cells; Assay used cell membranes, not intact cells; also called hCTR; hCT
T1 sequence (looked up): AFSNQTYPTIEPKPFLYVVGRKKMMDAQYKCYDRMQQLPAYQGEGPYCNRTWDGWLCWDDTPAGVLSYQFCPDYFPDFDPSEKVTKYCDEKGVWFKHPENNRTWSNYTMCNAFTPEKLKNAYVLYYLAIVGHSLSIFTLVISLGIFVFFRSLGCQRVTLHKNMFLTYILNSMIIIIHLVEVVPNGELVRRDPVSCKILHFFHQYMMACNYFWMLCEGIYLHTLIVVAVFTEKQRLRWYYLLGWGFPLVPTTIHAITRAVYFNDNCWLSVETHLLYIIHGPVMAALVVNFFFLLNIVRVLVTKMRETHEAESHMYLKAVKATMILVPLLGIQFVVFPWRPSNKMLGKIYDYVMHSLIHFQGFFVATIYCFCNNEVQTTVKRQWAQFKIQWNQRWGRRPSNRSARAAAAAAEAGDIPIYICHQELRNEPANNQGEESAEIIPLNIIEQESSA

T2: human amylin receptor (amylin 3(a) receptor: human calcitonin receptor with RAMP-3) (human, UniProt P30988 25-474; O60896 24-148)
T2 construct: whole, on cells; Assay used cell membranes of the Amylin 3(a)/CRE-luc BHK cells, not intact cells; also called hAmylin-R; hAmylinR
T2 sequence (looked up) 1: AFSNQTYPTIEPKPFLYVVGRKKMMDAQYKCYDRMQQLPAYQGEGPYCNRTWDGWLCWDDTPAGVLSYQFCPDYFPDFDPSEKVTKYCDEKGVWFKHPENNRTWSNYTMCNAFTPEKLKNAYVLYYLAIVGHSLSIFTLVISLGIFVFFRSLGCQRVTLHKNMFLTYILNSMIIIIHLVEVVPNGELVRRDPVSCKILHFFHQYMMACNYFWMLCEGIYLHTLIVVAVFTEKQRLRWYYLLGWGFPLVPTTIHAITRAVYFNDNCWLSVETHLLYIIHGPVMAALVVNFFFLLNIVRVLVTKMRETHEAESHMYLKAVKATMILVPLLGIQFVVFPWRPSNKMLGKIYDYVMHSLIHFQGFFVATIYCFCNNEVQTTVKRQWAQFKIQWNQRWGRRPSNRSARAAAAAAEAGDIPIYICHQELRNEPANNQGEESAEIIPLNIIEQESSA
T2 sequence (looked up) 2: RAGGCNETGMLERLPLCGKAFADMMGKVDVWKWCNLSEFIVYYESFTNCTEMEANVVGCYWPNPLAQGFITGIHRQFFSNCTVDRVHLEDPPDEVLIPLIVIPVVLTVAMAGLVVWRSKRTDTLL


Experiments:
[1] = biological target: T1, human calcitonin receptor; test: ratio IC50 hCTR / IC50 hAmylin-R (reference: human amylin receptor), SPA competition assays
How it was run: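 Competition binding by SPA with cell membranes (35 ng/μL) and SPA beads in 50 mM Hepes pH 7.4 with 1 mM CaCl2, 5 mM MgCl2, 0.1% OA and 0.02% Tween20. Incubated 120 min at 25 °C with shaking, then counted.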

[2] = biological target: T1, human calcitonin receptor; test: SPA competition with 125I-calcitonin on membranes of BHK cells with human calcitonin receptor (Assay VII)
How it was run: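 BHK hCTR membranes 35 ng/μL + SPA beads 0.05 mg/well; buffer 50 mM Hepes pH 7.4, 1 mM CaCl2, 5 mM MgCl₂, 0.1% OA, 0.02% Tween20. 120 min, 25° C., shaking. Scintillation count; IC50 by one-site binding competition.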

[3] = biological target: T2, human amylin receptor (amylin 3(a) …); test: SPA competition with 125I-rat amylin on membranes of BHK cells with human calcitonin receptor and RAMP-3 (Assay V)
How it was run: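 SPA beads with BHK Amylin 3(a)/CRE-luc cell membranes (35 ng/μL final) in 50 mM Hepes pH 7.4, 1 mM CaCl2, 5 mM MgCl₂, 0.1% OA, 0.02% Tween20.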

| Binder | Ratio hCT/hAmylin binding [1] | IC50 [2] [nM] | IC50 [3] [nM] |
| --- | --- | --- | --- |
| K([γGlu-C20 diacid])CNTATCATQRLAHFLRHSSPNFGAIPSSTPVGPNTY-NH2 (disulfide 2-7; N-terminus assumed; SMILES CC[C@H](C)[C@H](NC(=O)[C@H](C)NC(=O)CNC(=O)[C@H](Cc1ccccc1)NC(=O)[C@H](CC(N)=O)NC(=O)[C@@H]1CCCN1C(=O)[C@H](CO)NC(=O)[C@H](CO)NC(=O)[C@H](Cc1c[nH]cn1)NC(=O)[C@H](CCCNC(=N)N)NC(=O)[C@H](CC(C)C)NC(=O)[C@H](Cc1ccccc1)NC(=O)[C@H](Cc1c[nH]cn1)NC(=O)[C@H](C)NC(=O)[C@H](CC(C)C)NC(=O)[C@H](CCCNC(=N)N)NC(=O)[C@H](CCC(N)=O)NC(=O)[C@@H](NC(=O)[C@H](C)NC(=O)[C@@H]1CSSC[C@H](NC(=O)[C@@H](N)CCCCNC(=O)CC[C@H](NC(=O)CCCCCCCCCCCCCCCCCCC(=O)O)C(=O)O)C(=O)N[C@@H](CC(N)=O)C(=O)N[C@@H]([C@@H](C)O)C(=O)N[C@@H](C)C(=O)N[C@@H]([C@@H](C)O)C(=O)N1)[C@@H](C)O)C(=O)N1CCC[C@H]1C(=O)N[C@@H](CO)C(=O)N[C@@H](CO)C(=O)N[C@H](C(=O)N1CCC[C@H]1C(=O)N[C@H](C(=O)NCC(=O)N1CCC[C@H]1C(=O)N[C@@H](CC(N)=O)C(=O)N[C@H](C(=O)N[C@@H](Cc1ccc(O)cc1)C(N)=O)[C@@H](C)O)C(C)C)[C@@H](C)O) | 24.8 | 2.04 | 0.082 |
| K([γGlu-γGlu-C20 diacid])CNTATCATQRLANFLRHSSPNFGAIPSSTNVGHNTY-NH2 (disulfide 2-7; N-terminus assumed; SMILES CC[C@H](C)[C@H](NC(=O)[C@H](C)NC(=O)CNC(=O)[C@H](Cc1ccccc1)NC(=O)[C@H](CC(N)=O)NC(=O)[C@@H]1CCCN1C(=O)[C@H](CO)NC(=O)[C@H](CO)NC(=O)[C@H](Cc1c[nH]cn1)NC(=O)[C@H](CCCNC(=N)N)NC(=O)[C@H](CC(C)C)NC(=O)[C@H](Cc1ccccc1)NC(=O)[C@H](CC(N)=O)NC(=O)[C@H](C)NC(=O)[C@H](CC(C)C)NC(=O)[C@H](CCCNC(=N)N)NC(=O)[C@H](CCC(N)=O)NC(=O)[C@@H](NC(=O)[C@H](C)NC(=O)[C@@H]1CSSC[C@H](NC(=O)[C@@H](N)CCCCNC(=O)CC[C@H](NC(=O)CC[C@H](NC(=O)CCCCCCCCCCCCCCCCCCC(=O)O)C(=O)O)C(=O)O)C(=O)N[C@@H](CC(N)=O)C(=O)N[C@@H]([C@@H](C)O)C(=O)N[C@@H](C)C(=O)N[C@@H]([C@@H](C)O)C(=O)N1)[C@@H](C)O)C(=O)N1CCC[C@H]1C(=O)N[C@@H](CO)C(=O)N[C@@H](CO)C(=O)N[C@H](C(=O)N[C@@H](CC(N)=O)C(=O)N[C@H](C(=O)NCC(=O)N[C@@H](Cc1c[nH]cn1)C(=O)N[C@@H](CC(N)=O)C(=O)N[C@H](C(=O)N[C@@H](Cc1ccc(O)cc1)C(N)=O)[C@@H](C)O)C(C)C)[C@@H](C)O, also called compound 86) | 159 | 133 | 0.833 |
| K([γGlu-γGlu-C20 diacid])CNTATCATQRLANFLRHSSPNFGAIPSSTPVGPRTY-NH2 (disulfide 2-7; N-terminus assumed; SMILES CC[C@H](C)[C@H](NC(=O)[C@H](C)NC(=O)CNC(=O)[C@H](Cc1ccccc1)NC(=O)[C@H](CC(N)=O)NC(=O)[C@@H]1CCCN1C(=O)[C@H](CO)NC(=O)[C@H](CO)NC(=O)[C@H](Cc1c[nH]cn1)NC(=O)[C@H](CCCNC(=N)N)NC(=O)[C@H](CC(C)C)NC(=O)[C@H](Cc1ccccc1)NC(=O)[C@H](CC(N)=O)NC(=O)[C@H](C)NC(=O)[C@H](CC(C)C)NC(=O)[C@H](CCCNC(=N)N)NC(=O)[C@H](CCC(N)=O)NC(=O)[C@@H](NC(=O)[C@H](C)NC(=O)[C@@H]1CSSC[C@H](NC(=O)[C@@H](N)CCCCNC(=O)CC[C@H](NC(=O)CC[C@H](NC(=O)CCCCCCCCCCCCCCCCCCC(=O)O)C(=O)O)C(=O)O)C(=O)N[C@@H](CC(N)=O)C(=O)N[C@@H]([C@@H](C)O)C(=O)N[C@@H](C)C(=O)N[C@@H]([C@@H](C)O)C(=O)N1)[C@@H](C)O)C(=O)N1CCC[C@H]1C(=O)N[C@@H](CO)C(=O)N[C@@H](CO)C(=O)N[C@H](C(=O)N1CCC[C@H]1C(=O)N[C@H](C(=O)NCC(=O)N1CCC[C@H]1C(=O)N[C@@H](CCCNC(=N)N)C(=O)N[C@H](C(=O)N[C@@H](Cc1ccc(O)cc1)C(N)=O)[C@@H](C)O)C(C)C)[C@@H](C)O) | 48.6 | 42.8 | 0.88 |
| K([γGlu-γGlu-C20 diacid])CNTATCATQRLADFLRHSSPNFGAIPSSTNVGPRTY-NH2 (disulfide 2-7; N-terminus assumed; SMILES CC[C@H](C)[C@H](NC(=O)[C@H](C)NC(=O)CNC(=O)[C@H](Cc1ccccc1)NC(=O)[C@H](CC(N)=O)NC(=O)[C@@H]1CCCN1C(=O)[C@H](CO)NC(=O)[C@H](CO)NC(=O)[C@H](Cc1c[nH]cn1)NC(=O)[C@H](CCCNC(=N)N)NC(=O)[C@H](CC(C)C)NC(=O)[C@H](Cc1ccccc1)NC(=O)[C@H](CC(=O)O)NC(=O)[C@H](C)NC(=O)[C@H](CC(C)C)NC(=O)[C@H](CCCNC(=N)N)NC(=O)[C@H](CCC(N)=O)NC(=O)[C@@H](NC(=O)[C@H](C)NC(=O)[C@@H]1CSSC[C@H](NC(=O)[C@@H](N)CCCCNC(=O)CC[C@H](NC(=O)CC[C@H](NC(=O)CCCCCCCCCCCCCCCCCCC(=O)O)C(=O)O)C(=O)O)C(=O)N[C@@H](CC(N)=O)C(=O)N[C@@H]([C@@H](C)O)C(=O)N[C@@H](C)C(=O)N[C@@H]([C@@H](C)O)C(=O)N1)[C@@H](C)O)C(=O)N1CCC[C@H]1C(=O)N[C@@H](CO)C(=O)N[C@@H](CO)C(=O)N[C@H](C(=O)N[C@@H](CC(N)=O)C(=O)N[C@H](C(=O)NCC(=O)N1CCC[C@H]1C(=O)N[C@@H](CCCNC(=N)N)C(=O)N[C@H](C(=O)N[C@@H](Cc1ccc(O)cc1)C(N)=O)[C@@H](C)O)C(C)C)[C@@H](C)O, also called compound 130) | 280 | 127 | 0.453 |
| K([γGlu-γGlu-C20 diacid])CNTATCATQRLADFLRHSSPNFGAIPSSTNVGPETY-NH2 (disulfide 2-7; N-terminus assumed; SMILES CC[C@H](C)[C@H](NC(=O)[C@H](C)NC(=O)CNC(=O)[C@H](Cc1ccccc1)NC(=O)[C@H](CC(N)=O)NC(=O)[C@@H]1CCCN1C(=O)[C@H](CO)NC(=O)[C@H](CO)NC(=O)[C@H](Cc1c[nH]cn1)NC(=O)[C@H](CCCNC(=N)N)NC(=O)[C@H](CC(C)C)NC(=O)[C@H](Cc1ccccc1)NC(=O)[C@H](CC(=O)O)NC(=O)[C@H](C)NC(=O)[C@H](CC(C)C)NC(=O)[C@H](CCCNC(=N)N)NC(=O)[C@H](CCC(N)=O)NC(=O)[C@@H](NC(=O)[C@H](C)NC(=O)[C@@H]1CSSC[C@H](NC(=O)[C@@H](N)CCCCNC(=O)CC[C@H](NC(=O)CC[C@H](NC(=O)CCCCCCCCCCCCCCCCCCC(=O)O)C(=O)O)C(=O)O)C(=O)N[C@@H](CC(N)=O)C(=O)N[C@@H]([C@@H](C)O)C(=O)N[C@@H](C)C(=O)N[C@@H]([C@@H](C)O)C(=O)N1)[C@@H](C)O)C(=O)N1CCC[C@H]1C(=O)N[C@@H](CO)C(=O)N[C@@H](CO)C(=O)N[C@H](C(=O)N[C@@H](CC(N)=O)C(=O)N[C@H](C(=O)NCC(=O)N1CCC[C@H]1C(=O)N[C@@H](CCC(=O)O)C(=O)N[C@H](C(=O)N[C@@H](Cc1ccc(O)cc1)C(N)=O)[C@@H](C)O)C(C)C)[C@@H](C)O) | 49.8 | 8.56 | 0.172 |
